{"source": "paper PMC12102759", "about": "(2025)", "parents": {"B1": {"name": "ATXN2 peptide 913-928 (Ataxin-2), 16-mer library wild type / PABPC1 PABC (PABPC1 PABC domain, residues 544-623) (parent complex)", "chain 1": "TLNPNAKEFNPRSFSQ", "chain 2": "PLTASMLASAPPQEQKQMLGERLFPLIQAMHPTLAGKITGMLLEIDNSELLHMLESPESLRSKVDEAVAVLQAHQAKEAA"}, "B2": {"name": "CBL peptide 540-555 (E3 ubiquitin-protein ligase CBL), 16-mer library wild type / YES SH3 (YES1 SH3 domain, residues 90-152) (parent complex)", "chain 1": "RDLPPPPPPDRPYSVG", "chain 2": "not shown"}}}
{"variants_of": "B1", "experiment": "proteomic peptide phage display deep mutational scan (ProP-PD DMS): M13 P8 16-mer library selected against immobilised GST-tagged bait for four days (rounds), NGS of the eluted pools per day and pseudo-replica; bait immobilised on MaxiSorp plates (10 µg), library pre-cleared on GST, 2 h binding at 4 °C, five washes; one round per day, days 1-4; value from days 2 and 3"}
{"variant": "chain 1 TLNPNAKEFNPRYFSQ", "screen value": "0.00087 average fractional NGS count over selection days 2 and 3 (reads of this peptide / all reads for the bait, averaged over …"}
{"variant": "chain 1 TLNPNAKEFNPRWFSQ", "screen value": "0.000472 average fractional NGS count over selection days 2 and 3 (reads of this peptide / all reads for the bait, averaged over …"}
{"variant": "chain 1 TLNPNAKEFNPRPFSQ", "screen value": "0.0016 average fractional NGS count over selection days 2 and 3 (reads of this peptide / all reads for the bait, averaged over …"}
{"variant": "chain 1 TLNPNAKEFNPRLFSQ", "screen value": "0.0013 average fractional NGS count over selection days 2 and 3 (reads of this peptide / all reads for the bait, averaged over …"}
{"variant": "chain 1 TLNPNAKEFNPRAFSQ", "screen value": "0.00421 average fractional NGS count over selection days 2 and 3 (reads of this peptide / all reads for the bait, averaged over …"}
{"variant": "chain 1 TLNPNAKEFNPRSHSQ", "screen value": "0.00184 average fractional NGS count over selection days 2 and 3 (reads of this peptide / all reads for the bait, averaged over …"}
{"variant": "chain 1 TLNPNAKEFNPRSYSQ", "screen value": "0.00139 average fractional NGS count over selection days 2 and 3 (reads of this peptide / all reads for the bait, averaged over …"}
{"variant": "chain 1 TLNPNAKEFNPRSASQ", "screen value": "0.000336 average fractional NGS count over selection days 2 and 3 (reads of this peptide / all reads for the bait, averaged over …"}
{"variant": "chain 1 TLNPNAKEFNPRSVSQ", "screen value": "0.00125 average fractional NGS count over selection days 2 and 3 (reads of this peptide / all reads for the bait, averaged over …"}
{"variant": "chain 1 TLNPNAKEFNPRSLSQ", "screen value": "0.00171 average fractional NGS count over selection days 2 and 3 (reads of this peptide / all reads for the bait, averaged over …"}
{"variant": "chain 1 TLNPNAKEFNPRSISQ", "screen value": "0.000362 average fractional NGS count over selection days 2 and 3 (reads of this peptide / all reads for the bait, averaged over …"}
{"variant": "chain 1 TLNPNAVEFNPRSFSQ", "screen value": "0.000726 average fractional NGS count over selection days 2 and 3 (reads of this peptide / all reads for the bait, averaged over …"}
{"variant": "chain 1 TLNPNAFEFNPRSFSQ", "screen value": "0.00539 average fractional NGS count over selection days 2 and 3 (reads of this peptide / all reads for the bait, averaged over …"}
{"variant": "chain 1 TLNPNADEFNPRSFSQ", "screen value": "0.00119 average fractional NGS count over selection days 2 and 3 (reads of this peptide / all reads for the bait, averaged over …"}
{"variant": "chain 1 TLNPNATEFNPRSFSQ", "screen value": "0.000636 average fractional NGS count over selection days 2 and 3 (reads of this peptide / all reads for the bait, averaged over …"}
{"variant": "chain 1 TLNPNAAEFNPRSFSQ", "screen value": "0.0221 average fractional NGS count over selection days 2 and 3 (reads of this peptide / all reads for the bait, averaged over …"}
{"variant": "chain 1 TLNPNASEFNPRSFSQ", "screen value": "0.00126 average fractional NGS count over selection days 2 and 3 (reads of this peptide / all reads for the bait, averaged over …"}
{"variant": "chain 1 TLNPNAPEFNPRSFSQ", "screen value": "0.000615 average fractional NGS count over selection days 2 and 3 (reads of this peptide / all reads for the bait, averaged over …"}
{"variant": "chain 1 TLNPNAIEFNPRSFSQ", "screen value": "0.000344 average fractional NGS count over selection days 2 and 3 (reads of this peptide / all reads for the bait, averaged over …"}
{"variant": "chain 1 TLNPLAKEFNPRSFSQ", "screen value": "0.00771 average fractional NGS count over selection days 2 and 3 (reads of this peptide / all reads for the bait, averaged over …"}
{"variant": "chain 1 TLNPHAKEFNPRSFSQ", "screen value": "0.00507 average fractional NGS count over selection days 2 and 3 (reads of this peptide / all reads for the bait, averaged over …"}
{"variant": "chain 1 TLNPQAKEFNPRSFSQ", "screen value": "0.00052 average fractional NGS count over selection days 2 and 3 (reads of this peptide / all reads for the bait, averaged over …"}
{"variant": "chain 1 TLNPFAKEFNPRSFSQ", "screen value": "0.000799 average fractional NGS count over selection days 2 and 3 (reads of this peptide / all reads for the bait, averaged over …"}
{"variant": "chain 1 TLNPKAKEFNPRSFSQ", "screen value": "0.00157 average fractional NGS count over selection days 2 and 3 (reads of this peptide / all reads for the bait, averaged over …"}
{"variant": "chain 1 TLNPTAKEFNPRSFSQ", "screen value": "0.00242 average fractional NGS count over selection days 2 and 3 (reads of this peptide / all reads for the bait, averaged over …"}
{"variant": "chain 1 TLNPNAKEFNPRSFPQ", "screen value": "0.012 average fractional NGS count over selection days 2 and 3 (reads of this peptide / all reads for the bait, averaged over …"}
{"variant": "chain 1 TLNPNAKEFNPRSFIQ", "screen value": "0.000409 average fractional NGS count over selection days 2 and 3 (reads of this peptide / all reads for the bait, averaged over …"}
{"variant": "chain 1 TLNPNAKEFNPRSFHQ", "screen value": "0.000448 average fractional NGS count over selection days 2 and 3 (reads of this peptide / all reads for the bait, averaged over …"}
{"variant": "chain 1 TLNPNAKEFNPRSFVQ", "screen value": "0.000359 average fractional NGS count over selection days 2 and 3 (reads of this peptide / all reads for the bait, averaged over …"}
{"variant": "chain 1 TLNPNAKEFNPRSFEQ", "screen value": "0.00372 average fractional NGS count over selection days 2 and 3 (reads of this peptide / all reads for the bait, averaged over …"}
{"variant": "chain 1 TLNPNAKEFNPKSFSQ", "screen value": "0.000537 average fractional NGS count over selection days 2 and 3 (reads of this peptide / all reads for the bait, averaged over …"}
{"variant": "chain 1 TLNPNAKEFNPYSFSQ", "screen value": "0.00157 average fractional NGS count over selection days 2 and 3 (reads of this peptide / all reads for the bait, averaged over …"}
{"variant": "chain 1 TLNPNAKEFNPMSFSQ", "screen value": "0.00123 average fractional NGS count over selection days 2 and 3 (reads of this peptide / all reads for the bait, averaged over …"}
{"variant": "chain 1 TLNPNAKEFNPNSFSQ", "screen value": "0.00143 average fractional NGS count over selection days 2 and 3 (reads of this peptide / all reads for the bait, averaged over …"}
{"variant": "chain 1 TLNPNAKEFNPHSFSQ", "screen value": "0.00563 average fractional NGS count over selection days 2 and 3 (reads of this peptide / all reads for the bait, averaged over …"}
{"variant": "chain 1 TLNPNAKEFPPRSFSQ", "screen value": "0.000829 average fractional NGS count over selection days 2 and 3 (reads of this peptide / all reads for the bait, averaged over …"}
{"variant": "chain 1 TLNPNAKEFDPRSFSQ", "screen value": "0.0012 average fractional NGS count over selection days 2 and 3 (reads of this peptide / all reads for the bait, averaged over …"}
{"variant": "chain 1 TLNPNAKEFRPRSFSQ", "screen value": "0.000511 average fractional NGS count over selection days 2 and 3 (reads of this peptide / all reads for the bait, averaged over …"}
{"variant": "chain 1 TLNPNAKEFAPRSFSQ", "screen value": "0.000525 average fractional NGS count over selection days 2 and 3 (reads of this peptide / all reads for the bait, averaged over …"}
{"variant": "chain 1 GLNPNAKEFNPRSFSQ", "screen value": "0.00313 average fractional NGS count over selection days 2 and 3 (reads of this peptide / all reads for the bait, averaged over …"}
{"variant": "chain 1 VLNPNAKEFNPRSFSQ", "screen value": "0.000977 average fractional NGS count over selection days 2 and 3 (reads of this peptide / all reads for the bait, averaged over …"}
{"variant": "chain 1 KLNPNAKEFNPRSFSQ", "screen value": "0.00118 average fractional NGS count over selection days 2 and 3 (reads of this peptide / all reads for the bait, averaged over …"}
{"variant": "chain 1 HLNPNAKEFNPRSFSQ", "screen value": "0.000542 average fractional NGS count over selection days 2 and 3 (reads of this peptide / all reads for the bait, averaged over …"}
{"variant": "chain 1 YLNPNAKEFNPRSFSQ", "screen value": "0.0102 average fractional NGS count over selection days 2 and 3 (reads of this peptide / all reads for the bait, averaged over …"}
{"variant": "chain 1 MLNPNAKEFNPRSFSQ", "screen value": "0.000194 average fractional NGS count over selection days 2 and 3 (reads of this peptide / all reads for the bait, averaged over …"}
{"variant": "chain 1 ALNPNAKEFNPRSFSQ", "screen value": "0.00105 average fractional NGS count over selection days 2 and 3 (reads of this peptide / all reads for the bait, averaged over …"}
{"variant": "chain 1 LLNPNAKEFNPRSFSQ", "screen value": "0.0036 average fractional NGS count over selection days 2 and 3 (reads of this peptide / all reads for the bait, averaged over …"}
{"variant": "chain 1 TLNPNAKEFNNRSFSQ", "screen value": "0.000672 average fractional NGS count over selection days 2 and 3 (reads of this peptide / all reads for the bait, averaged over …"}
{"variant": "chain 1 TLNPNAKEFNMRSFSQ", "screen value": "0.000174 average fractional NGS count over selection days 2 and 3 (reads of this peptide / all reads for the bait, averaged over …"}
{"variant": "chain 1 TLNPNAKEFNYRSFSQ", "screen value": "0.000724 average fractional NGS count over selection days 2 and 3 (reads of this peptide / all reads for the bait, averaged over …"}
{"variant": "chain 1 TLNPNAKEFNFRSFSQ", "screen value": "0.00198 average fractional NGS count over selection days 2 and 3 (reads of this peptide / all reads for the bait, averaged over …"}
{"variant": "chain 1 TLNPNAKEFNQRSFSQ", "screen value": "0.000241 average fractional NGS count over selection days 2 and 3 (reads of this peptide / all reads for the bait, averaged over …"}
{"variant": "chain 1 TLNPNAKEFNDRSFSQ", "screen value": "8.69e-05 average fractional NGS count over selection days 2 and 3 (reads of this peptide / all reads for the bait, averaged over …"}
{"variant": "chain 1 TLNPNAKEFNWRSFSQ", "screen value": "0.000361 average fractional NGS count over selection days 2 and 3 (reads of this peptide / all reads for the bait, averaged over …"}
{"variant": "chain 1 TLNPNAKEFNSRSFSQ", "screen value": "0.000475 average fractional NGS count over selection days 2 and 3 (reads of this peptide / all reads for the bait, averaged over …"}
{"variant": "chain 1 TLNLNAKEFNPRSFSQ", "screen value": "0.000532 average fractional NGS count over selection days 2 and 3 (reads of this peptide / all reads for the bait, averaged over …"}
{"variant": "chain 1 TLNTNAKEFNPRSFSQ", "screen value": "0.000273 average fractional NGS count over selection days 2 and 3 (reads of this peptide / all reads for the bait, averaged over …"}
{"variant": "chain 1 TLNINAKEFNPRSFSQ", "screen value": "0.00226 average fractional NGS count over selection days 2 and 3 (reads of this peptide / all reads for the bait, averaged over …"}
{"variant": "chain 1 TLNPNAKNFNPRSFSQ", "screen value": "0.00138 average fractional NGS count over selection days 2 and 3 (reads of this peptide / all reads for the bait, averaged over …"}
{"variant": "chain 1 TLNPNAKAFNPRSFSQ", "screen value": "0.000246 average fractional NGS count over selection days 2 and 3 (reads of this peptide / all reads for the bait, averaged over …"}
{"variant": "chain 1 TLNPNTKEFNPRSFSQ", "screen value": "0.000787 average fractional NGS count over selection days 2 and 3 (reads of this peptide / all reads for the bait, averaged over …"}
{"variant": "chain 1 TLNPNVKEFNPRSFSQ", "screen value": "0.00065 average fractional NGS count over selection days 2 and 3 (reads of this peptide / all reads for the bait, averaged over …"}
{"variant": "chain 1 TLSPNAKEFNPRSFSQ", "screen value": "0.0019 average fractional NGS count over selection days 2 and 3 (reads of this peptide / all reads for the bait, averaged over …"}
{"variants_of": "B2", "experiment": "proteomic peptide phage display deep mutational scan (ProP-PD DMS): M13 P8 16-mer library selected against immobilised GST-tagged bait for four days (rounds), NGS of the eluted pools per day and pseudo-replica; bait immobilised on MaxiSorp plates (10 µg), library pre-cleared on GST, 2 h binding at 4 °C, five washes; one round per day, days 1-4; value from days 2 and 3"}
{"variant": "chain 1 R11Y", "screen value": "0.000176 average fractional NGS count over selection days 2 and 3 (reads of this peptide / all reads for the bait, averaged over …"}
